Experimental findings from the supplement of paper PMC5998384 are described below.

The test system of series [1] is HeLa Kyoto. Put plainly: thermal stability score vs G1/S (z-score of summed log2 fold changes over temperatures); higher = more thermally stable than in G1/S.
Series [2] concerns HeLa Kyoto. Put plainly: melting temperature (median over replicates), in situ; higher = more thermally stable.
Series [3] relates to HeLa Kyoto. The experiment in a line: solubility in G1/S (NP-40 vs SDS abundance) (log2 ratio); higher = more soluble. As to conditions: cell cycle stage: G1/S.
In series [4] the test system is HeLa Kyoto. Put plainly: solubility change mitosis vs G1/S (difference of NP-40 vs SDS log2 ratios) (log2 ratio difference); higher = more soluble in mitosis.
[5] abbreviates: cell cycle stage: early G1 (4.5 h after nocodazole release).
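Throughout, for melting temperature (median over replicates), in situ: HeLa Kyoto cells synchronized by double thymidine or nocodazole block, proteins quantified by TMT10plex mass spectrometry, three independent biological replicates.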
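Throughout, for solubility change mitosis vs G1/S (difference of NP-40 vs SDS log2 ratios): synchronized HeLa Kyoto cells (double thymidine block for G1/S, nocodazole release for mitosis), protein amounts in NP-40 versus SDS lysates quantified by mass spectrometry, three biological replicates.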
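Throughout, for solubility in G1/S (NP-40 vs SDS abundance): HeLa Kyoto cells arrested at G1/S by double thymidine block, proteins quantified by TMT10plex mass spectrometry in mild NP-40 versus SDS extracts, three biological replicates.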
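Throughout, for thermal stability score vs G1/S (z-score of summed log2 fold changes over temperatures): synchronized HeLa Kyoto cells, proteins quantified by TMT10plex mass spectrometry, three biological replicates, mitosis taken 0.5 h after nocodazole release, G1/S directly after double thymidine block.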

With “MLSAASRVVSRAAVHCALRSPPPEARALAMSRPPPPRVASVLGTMEMGRRMDAPASAAAVRAFLERGHTELDTAFMYSDGQSETILGGLGLGLGGGDCRVKIATKANPWDGKSLKPDSVRSQLETSLKRLQCPQVDLFYLHAPDHGTPVEETLHACQRLHQEGKFVELGLSNYASWEVAEICTLCKSNGWILPTVYQGMYNATTRQVETELFPCLRHFGLRFYAYNPLAGGLLTGKYKYEDKDGKQPVGRFFGNSWAETYRNRFWKEHHFEAIALVEKALQAAYGASAPSVTSAALRWMYHHSQLQGAHGDAVILGMSSLEQLEQNLAATEEGPLEPAVVDAFNQAWHLVAHECPNYFR [AKR7A2]”, the results for the thermal stability score in series [1] (setting [5]) and in series [1] (cell cycle stage: mitosis) were 0.491 and 0.31, respectively. The melting temperature in series [2] (cell cycle stage: G1/S) and in series [2] (cell cycle stage: mitosis) was 53.1 °C in each case. In series [3], the “solubility in G1/S (log2)” value is 0.438. The “solubility change mitosis (log2)” value in series [4] is -0.121.

Turning to “MAALMTPGTGAPPAPGDFSGEGSQGLPDPSPEPKQLPELIRMKRDGGRLSEADIRGFVAAVVNGSAQGAQIGAMLMAIRLRGMDLEETSVLTQALAQSGQQLEWPEAWRQQLVDKHSTGGVGDKVSLVLAPALAACGCKVPMISGRGLGHTGGTLDKLESIPGFNVIQSPEQMQVLLDQAGCCIVGQSEQLVPADGILYAARDVTATVDSLPLITASILSKKLVEGLSALVVDVKFGGAAVFPNQEQARELAKTLVGVGASLGLRVAAALTAMDKPLGRCVGHALEVEEALLCMDGAGPPDLRDLVTTLGGALLWLSGHAGTQAQGAARVAAALDDGSALGRFERMLAAQGVDPGLARALCSGSPAERRQLLPRAREQEELLAPADGTVELVRALPLALVLHELGAGRSRAGEPLRLGVGAELLVDVGQRLRRGTPWLRVHRDGPALSGPQSRALQEALVLSDRAPFAAPSPFAELVLPPQQ [TYMP]”, the thermal stability score in series [1] (setting [5]) is -1.38; in series [1] (cell cycle stage: mitosis), -0.967. The melting temperature in series [2] (cell cycle stage: G1/S) is 55.7 °C; in series [2] (cell cycle stage: mitosis), 57.5 °C. Also, the “solubility in G1/S (log2)” value in series [3] came out at 0.479. The “solubility change mitosis (log2)” value in series [4] is -0.0175.

“MAPLDLDKYVEIARLCKYLPENDLKRLCDYVCDLLLEESNVQPVSTPVTVCGDIHGQFYDLCELFRTGGQVPDTNYIFMGDFVDRGYYSLETFTYLLALKAKWPDRITLLRGNHESRQITQVYGFYDECQTKYGNANAWRYCTKVFDMLTVAALIDEQILCVHGGLSPDIKTLDQIRTIERNQEIPHKGAFCDLVWSDPEDVDTWAISPRGAGWLFGAKVTNEFVHINNLKLICRAHQLVHEGYKFMFDEKLVTVWSAPNYCYRCGNIASIMVFKDVNTREPKLFRAVPDSERVIPPRTTTPYFL [PPP6C]”: the thermal stability score in series [1] (setting [5]) was -1.68; in series [1] (cell cycle stage: mitosis) it was -2.31. The figures for the melting temperature in series [2] (cell cycle stage: G1/S) and in series [2] (cell cycle stage: mitosis) were 53.7 °C and 54.1 °C, respectively. In addition, the “solubility in G1/S (log2)” value in series [3] is -0.00442. In series [4], the “solubility change mitosis (log2)” value is -0.154.

Take “MAAPAPGLISVFSSSQELGAALAQLVAQRAACCLAGARARFALGLSGGSLVSMLARELPAAVAPAGPASLARWTLGFCDERLVPFDHAESTYGLYRTHLLSRLPIPESQVITINPELPVEEAAEDYAKKLRQAFQGDSIPVFDLLILGVGPDGHTCSLFPDHPLLQEREKIVAPISDSPKPPPQRVTLTLPVLNAARTVIFVATGEGKAAVLKRILEDQEENPLPAALVQPHTGKLCWFLDEAAARLLTVPFEKHSTL [PGLS]”: the thermal stability score was -2.51 in series [1] (setting [5]) and -2.63 in series [1] (cell cycle stage: mitosis). For the same sequence, the melting temperature in series [2] (cell cycle stage: G1/S) was found to be 54.8 °C; in series [2] (cell cycle stage: mitosis), 55.2 °C. Also, in series [3], the “solubility in G1/S (log2)” value turned out to be 0.254. Besides, the “solubility change mitosis (log2)” value in series [4] worked out at 0.237.

Regarding “MVLLHVLFEHAVGYALLALKEVEEISLLQPQVEESVLNLGKFHSIVRLVAFCPFASSQVALENANAVSEGVVHEDLRLLLETHLPSKKKKVLLGVGDPKIGAAIQEELGYNCQTGGVIAEILRGVRLHFHNLVKGLTDLSACKAQLGLGHSYSRAKVKFNVNRVDNMIIQSISLLDQLDKDINTFSMRVREWYGYHFPELVKIINDNATYCRLAQFIGNRRELNEDKLEKLEELTMDGAKAKAILDASRSSMGMDISAIDLINIESFSSRVVSLSEYRQSLHTYLRSKMSQVAPSLSALIGEAVGARLIAHAGSLTNLAKYPASTVQILGAEKALFRALKTRGNTPKYGLIFHSTFIGRAAAKNKGRISRYLANKCSIASRIDCFSEVPTSVFGEKLREQVEERLSFYETGEIPRKNLDVMKEAMVQAEEAAAEITRKLEKQEKKRLKKEKKRLAALALASSENSSSTPEECEEMSEKPKKKKKQKPQEVPQENGMEDPSISFSKPKKKKSFSKEELMSSDLEETAGSTSIPKRKKSTPKEETVNDPEEAGHRSGSKKKRKFSKEEPVSSGPEEAVGKSSSKKKKKFHKASQED [NOP56]”, the figures for the thermal stability score in series [1] (setting [5]) and in series [1] (cell cycle stage: mitosis) were -2.17 and -6.89, respectively. Moreover, the melting temperature amounted to 54.6 °C in series [2] (cell cycle stage: G1/S) and 52 °C in series [2] (cell cycle stage: mitosis). Moreover, in series [3], the “solubility in G1/S (log2)” value is -2.05. In series [4], the “solubility change mitosis (log2)” value was 1.28.

For “MEQEPQNGEPAEIKIIREAYKKAFLFVNKGLNTDELGQKEEAKNYYKQGIGHLLRGISISSKESEHTGPGWESARQMQQKMKETLQNVRTRLEILEKGLATSLQNDLQEVPKLYPEFPPKDMCEKLPEPQSFSSAPQHAEVNGNTSTPSAGAVAAPASLSLPSQSCPAEAPPAYTPQAAEGHYTVSYGTDSGEFSSVGEEFYRNHSQPPPLETLGLDADELILIPNGVQIFFVNPAGEVSAPSYPGYLRIVRFLDNSLDTVLNRPPGFLQVCDWLYPLVPDRSPVLKCTAGAYMFPDTMLQAAGCFVGVVLSSELPEDDRELFEDLLRQMSDLRLQANWNRAEEENEFQIPGRTRPSSDQLKEASGTDVKQLDQGNKDVRHKGKRGKRAKDTSSEEVNLSHIVPCEPVPEEKPKELPEWSEKVAHNILSGASWVSWGLVKGAEITGKAIQKGASKLRERIQPEEKPVEVSPAVTKGLYIAKQATGGAAKVSQFLVDGVCTVANCVGKELAPHVKKHGSKLVPESLKKDKDGKSPLDGAMVVAASSVQGFSTVWQGLECAAKCIVNNVSAETVQTVRYKYGYNAGEATHHAVDSAVNVGVTAYNINNIGIKAMVKKTATQTGHTLLEDYQIVDNSQRENQEGAANVNVRGEKDEQTKEVKEAKKKDK [SPG20]”, the values for the thermal stability score in series [1] (setting [5]) and in series [1] (cell cycle stage: mitosis) were 1.64 and 1.92, respectively. The values for the melting temperature in series [2] (cell cycle stage: G1/S) and in series [2] (cell cycle stage: mitosis) were 49.8 °C and 50.4 °C, respectively. Further, the “solubility in G1/S (log2)” value in series [3] is 0.205. Also, in series [4], the “solubility change mitosis (log2)” value was -0.0384.
